Substitutions are numbered along the chain they refer to.
T1: human TREM2 (human, UniProt Q9NZC2 19-174, limits assumed)
T1 construct: also called triggering receptor expressed on myeloid cells 2
T1 sequence: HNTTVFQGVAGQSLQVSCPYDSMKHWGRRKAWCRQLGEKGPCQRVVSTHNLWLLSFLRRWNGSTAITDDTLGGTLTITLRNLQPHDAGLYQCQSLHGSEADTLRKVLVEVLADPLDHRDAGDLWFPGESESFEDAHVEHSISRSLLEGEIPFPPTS

B1: V53 (antibody, V domains shown)
VH: EVQLVQSGAEVKKPGESLKISCKGSGYSFTSYWIAWVRQMPGKGLEWMGIIYPGDSDTRYSPHFQGQVTISADKSISTAYLQWSSLKASDTAMYFCARQRTFYYDSSDYFDYWGQGTLVTVSS
VL: DIQMTQSPSSVSASVGDRVTITCRASQGISSWLAWYQQKPGKAPKLLIYAASSLQNGVPSRFSGSGSGTDFTLTISSLQPEDFATYFCQQADSFPRTFGQGTKLEIK
notes: also called 6E7 variant V53
B2: V63 (antibody, V domains shown)
VH: B1 VH with T30R, H63S, Q99S
VL: B1 VL with N56R, S93R
notes: also called 6E7 variant V63
B3: V60 (antibody, V domains shown)
VH: B1 VH with S28H, T58V, H63S, F110S
VL: B1 VL with N56R, Q89G
notes: also called 6E7 variant V60; LV-108/HV-108
B4: V75 (antibody, V domains shown)
VH: B1 VH with H63S, Q99G
VL: B1 VL with N56A, F94Y
notes: also called 6E7 variant V75
B5: V89 (antibody, V domains shown)
VH: B1 VH with H63S
VL: B1 VL with F94H
notes: also called 6E7 variant V89
B6: V88 (antibody, V domains shown)
VH: B1 VH with T30G, H63S
VL: B1 VL with S53R, N56R, F94S
notes: also called 6E7 variant V88
B7: V73 (antibody, V domains shown)
VH: B1 VH with T30G, H63G, Q99G
VL: B1 VL with L54R, F94Y
notes: also called 6E7 variant V73; LV-106/HV-109
B8: V64 (antibody, V domains shown)
VH: B1 VH with T30Q, H63S, Q99G
VL: B1 VL with Q55A, F94Y
notes: also called 6E7 variant V64
B9: V86 (antibody, V domains shown)
VH: B1 VH with T30G, I34L, H63S, Q65E, Q99S
VL: B1 VL with L54R
notes: also called 6E7 variant V86
B10: V84 (antibody, V domains shown)
VH: B1 VH with S28G, H63S, F110S
VL: B1 VL with A50G
notes: also called 6E7 variant V84
B11: V77 (antibody, V domains shown)
VH: B1 VH with H63S
VL: B1 VL with L54R
notes: also called 6E7 variant V77
B12: V65 (antibody, V domains shown)
VH: B1 VH with H63S, Q99S
VL: B1 VL
notes: also called 6E7 variant V65
B13: V87 (antibody, V domains shown)
VH: B1 VH with T30R, T58V, H63D, Q99S
VL: B1 VL with N56W
notes: also called 6E7 variant V87
B14: V61 (antibody, V domains shown)
VH: B1 VH with T30S, S61N, H63S, Q99G
VL: B1 VL with Q55V, F94L
notes: also called 6E7 variant V61
B15: V85 (antibody, V domains shown)
VH: B1 VH with T30R, I50T, H63S, Q99S
VL: B1 VL with L54R
notes: also called 6E7 variant V85
B16: V76 (antibody, V domains shown)
VH: B1 VH with T30G, H63E, F110S
VL: B1 VL with N56K, T69R
notes: also called 6E7 variant V76; LV-109/HV-110
B17: V74 (antibody, V domains shown)
VH: B1 VH with T30A, T58V, H63S, Q99G
VL: B1 VL with N56L
notes: also called 6E7 variant V74
B18: V62 (antibody, V domains shown)
VH: B1 VH with T30G, S61A, H63S, D108G
VL: B1 VL with N56R, Q89G
notes: also called 6E7 variant V62
B19: V72 (antibody, V domains shown)
VH: B1 VH with A35G, H63S, Q99G
VL: B1 VL with Q55V, F94Y
notes: also called 6E7 variant V72

The binders below were run against T1, human TREM2 (assay: 2nd screen, 2 nM).

Row | Binding Signal | Binder
1 | 0.66 fold over 6E7 parental antibody | B1
2 | 4.91 fold over 6E7 parental antibody | B2
3 | 3.35 fold over 6E7 parental antibody | B3
4 | 3.74 fold over 6E7 parental antibody | B4
5 | 0.94 fold over 6E7 parental antibody | B5
6 | 5.57 fold over 6E7 parental antibody | B6
7 | 4.17 fold over 6E7 parental antibody | B7
8 | 4.88 fold over 6E7 parental antibody | B8
9 | 5.17 fold over 6E7 parental antibody | B9
10 | 1.45 fold over 6E7 parental antibody | B10
11 | 0.83 fold over 6E7 parental antibody | B11
12 | 1.29 fold over 6E7 parental antibody | B12
13 | 4.86 fold over 6E7 parental antibody | B13
14 | 3.63 fold over 6E7 parental antibody | B14
15 | 5.41 fold over 6E7 parental antibody | B15
16 | 4.34 fold over 6E7 parental antibody | B16
17 | 2.54 fold over 6E7 parental antibody | B17
18 | 1.87 fold over 6E7 parental antibody | B18
19 | 2.5 fold over 6E7 parental antibody | B19

Each binder was assayed against T1, human TREM2 (assay: 2nd screen, 10 nM).

Row | Binding Signal | Binder
20 | 1.17 fold over 6E7 parental antibody | B1
21 | 3.71 fold over 6E7 parental antibody | B2
22 | 3.63 fold over 6E7 parental antibody | B3
23 | 4.52 fold over 6E7 parental antibody | B4
24 | 1.46 fold over 6E7 parental antibody | B5
25 | 5.3 fold over 6E7 parental antibody | B6
26 | 5.44 fold over 6E7 parental antibody | B7
27 | 5.48 fold over 6E7 parental antibody | B8
28 | 5.02 fold over 6E7 parental antibody | B9
29 | 1.62 fold over 6E7 parental antibody | B10
30 | 1.38 fold over 6E7 parental antibody | B11
31 | 2.75 fold over 6E7 parental antibody | B12
32 | 3.93 fold over 6E7 parental antibody | B13
33 | 5.22 fold over 6E7 parental antibody | B14
34 | 5.37 fold over 6E7 parental antibody | B15
35 | 4.93 fold over 6E7 parental antibody | B16
36 | 4.01 fold over 6E7 parental antibody | B17
37 | 2.89 fold over 6E7 parental antibody | B18
38 | 4.01 fold over 6E7 parental antibody | B19

What follows are binders tested against T1, human TREM2 (assay: 1st screen, 10 nM Ab).

Row | Binding Signal | Binder
39 | 1.25 fold over 6E7 parental antibody | B1
40 | 3.76 fold over 6E7 parental antibody | B2
41 | 3.26 fold over 6E7 parental antibody | B3
42 | 4.64 fold over 6E7 parental antibody | B4
43 | 1.33 fold over 6E7 parental antibody | B5
44 | 4.92 fold over 6E7 parental antibody | B6
45 | 5.12 fold over 6E7 parental antibody | B7
46 | 5.41 fold over 6E7 parental antibody | B8
47 | 4.8 fold over 6E7 parental antibody | B9
48 | 1.44 fold over 6E7 parental antibody | B10
49 | 1.43 fold over 6E7 parental antibody | B11
50 | 2.05 fold over 6E7 parental antibody | B12
51 | 3.84 fold over 6E7 parental antibody | B13
52 | 5.08 fold over 6E7 parental antibody | B14
53 | 5.41 fold over 6E7 parental antibody | B15
54 | 4.57 fold over 6E7 parental antibody | B16
55 | 3.94 fold over 6E7 parental antibody | B17
56 | 2.49 fold over 6E7 parental antibody | B18
57 | 3.64 fold over 6E7 parental antibody | B19
